{
  "source": "paper PMC3526805",
  "origin": "cited, not measured here",
  "molecular_target": "C3b C3b (Homo sapiens) (UniProt P01024)",
  "sequence (P01024 566-670)": "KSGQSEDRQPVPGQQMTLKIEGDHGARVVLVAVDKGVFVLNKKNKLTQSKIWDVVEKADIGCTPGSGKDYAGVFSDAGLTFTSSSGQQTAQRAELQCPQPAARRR",
  "data": [
    {"substance": "Factor H four regulatory domains (from UniProt P08603)", "values": [
      {"measurement": "Kd", "result": 10, "unit": "µM"}
    ]}
  ]
}
